The nature of the data set: soluble on expression in E. coli; label from the status in PepcDB or PDB records.
As to “MGSDKIHHHHHHMSIEFSRWPNNYMMSYQVTKALGLASLGATDVTEIYEACKKIDPNDKETWHREWLITAETLERHGKEAEAVGNWYTARNCYIRACNYNRIAEYTVMDDDNEKIRIFRKVNELFEAAGKYFDVKPEKIQVDYEDVKLDGYFFSPSWIKGPKPTILALNGGDEWSIENYFWLGPAFISCGYNFMVYDQPGTGLSMYEKGKGRRADSEAFHSRAIDFLLTRPEVDPNKIIVHGESFAAYDSLRFASFDHRIAAVISDGGTHAFDWEAMLKWMPPSLAGHGMRILGAKSLDDFAENPRFAYNLEGVLHQIECPLLVMHGAEEILVQPNPLTQALKNYEQAGSKNKTFFPIEDRRIGGLEHCQVDNINVLHEVVLNWLCSIGLGPFAPRPSDC”, the “soluble on expression in E. coli” value is listed as “not soluble”.
In the case of “MPREFKSFGSTEKSLLSKGHGEPSYSEIYAEPENFLEIEVHNPKTHIPNGMDSKGMFTDYEIICRTNLPSFHKRVSKVRRRYSDFEFFRKCLIKEISMLNHPKVMVPHLPGKILLSNRFSNEVIEERRQGLNTWMQSVAGHPLLQSGSKVLVRFIEAEKFVG”, the “soluble on expression in E. coli” value is reported as “soluble”.
For “MLDYIPWIGNGYRYGNGYKGVAGAGHSATNGSPAGNTSSTTQSNDVAPTFSNVGVGLKANVQGTLGDSQTTTVGGHQWPTLDPANLQLWTGAEWRNDSKTQNNTTTNENHTKFASATGSGQQQGSTTTTSAGNPDSLKQDKADKSGNSISVQEATSGDNLTNYTNLPPNLTPTSDWPNALSFTNKNNAQRAQLFLRGLLGSIPVLVNNLEHHHHHH” the value was “not soluble”; for “MASYDKISDGWYRVCPKRSSNRALITVKLPFSTLFRLKPMTDITPFANRLGKNIKHLMKWAKRNGIEAWRIYDRDIPQFPFAADVYGDRIHLQEYDTGWLMRPEEYEAWLAEVLEAVAFVTGFAPEQIRLKRRERQKGLQQYEKTGKAGDDFVITENGRKFWVNLDKYLDTGLFLDHRNTRKKVGETAAGKRFLNLFSYTGSFTVYAATGGAASSETVDLSNTYLDWAKRNFELNGIDTERHKIVRADVFQYLQTAYGEGRRFDLIVMDPPSFSNSKKMSDILDIQRDHKKLIDGAVKLLASDGILYFSNNLRSFVLDDLVSEQYAVKDISKQSVPEDFRNKKIHRCWEIRHKS”, “not soluble”; for “MNTFVFLPLAFFVLLESFEAQEPPGPTARLNMLDNYMKRLNLTDIHFSDPGGIVKVDTVVNKYQPLTEEEIIRKMKKTVNDTAYDIANGKDPDLIEKLDKKTVQLPKPIRSRPQF”, “not soluble”.
For the sequence “SASTIYTCKECGSDLNLNPNDLFPPDFYFEAGNKGTLSFAAVDAEKFRFEKEDKIMPFFETLNYWGIQRKRTKIKCTSCNHLIGYIYDDGPPLTGGIGQYGFGPSQVIPRAPRYRFKTKARQDGWQYGGLTAFWN”, the “soluble on expression in E. coli” value is reported as “soluble”.
With “MSLSDNVDVDVLSLVQNDALEESVAINSMISKARANFSGSLLQFQTRVSSVYGETNEENAVNPLDPEHICKAFSDACIGLDIEIKEKLIVYKQFDRYVMGNLVECLEEANKIMIQAGVMPNLKYTAKKSRVTPRSTSDVSARPLEAQSDANGYDGAGDVFSQVQELLSALRNTASNPEQQQGDPNTGAGGRQAPPPGNVQFIADADLLSILSRLQHSVRTENLAEGPVVALDLRTAVQGLLSEESQKSGKATALDQIDEDLINLVSMLFEFILDDYNLSAPIQVLISRLQIPILKVAIRDKSFFSKPSHPARKLLNALAKAGIGWSDASEKKRDKLYEQIHRAVQRILEEFNGESELFEEIYQEFSQYLSREERKAKLVEQRTKEAEIGRVKSHKAHQVVEQILSEKIAAQPLPPVAVELLRGGWSRVMFLAYLKEDTEHRLNQCTKVVDELTWCLQPHAEVEARQRWVKVVPQLLKNLKAGLKEVSYNSAKLEHMLGELKKALTETFKQQSITSEGHHHHHH”, the “soluble on expression in E. coli” value is “not soluble”.
“MITLFQFPAAFNVPNASPYCLKLETWLRLAGLEYQVKVVSDPRKAPKGKLPYVRIEGEAIGDSEIVIRTLGERYGVTLDAGLDARGKGWARAITRLCDEHLYYLMLYFRWFDEDSWRVLKPVFFGSLPFGVRDAVAWAMRRKVRATLRAQGLGVHGRDELLAFARDDLDALDGLLGQVPYYGGEHPCSADAAAYGILANLIEATLDTPLSHVARGYPRLVAYCERMRERVWSELEHHHHHH”: the “soluble on expression in E. coli” value is reported as “soluble”.
For “MSVVSPDPAPVPHDPQRRALLRWLVGGGALAGGLGVSAVAQGYRFGVTHEQWNLVGLTRPVRLALLTDLHYGLYIGAGSVRRWVDATLAECPDLILLGGDLVDSHFDAAARPQQTAALLAELGRLRAPLGVYAVWGNHDYGSFGRSISQSPEASRADWAARRDALRAGLAGQGVTVLLNEGRSLRDDLWLGGVDDLRMGEADSVAALRGSGTRATVLLAHNPDVLLRLRSAPGLVLSGHTHGGQVRLPLLGALKVPADPRFTMGWVRGPQGIPAYVSRGLGMSGLPVRNLCEPEITLLTLLPPGALEHHHHHH” the value was “not soluble”; for “RDIAQRITGATLRAPPCHEEVREAIRDAVGRTLVSNRKVGVAVSGGLDSTILCSELDSLGITDLDLISIQALGSQDGITDLSALELKGEAWKSWRLTASRFDPATYWRDLRRAIAILGEPTQMTSAPLYLGLAEKAAEAGVVVLLLGEGADELFCGYRSYLPMLSGWSLRDFLFRPLERAVCQRLFSGEIQARCAAALDVFTRALPEGDQWTQLRAAEMSHNLEPLLLRADHTLMRCSIEGRTPFLHGDVADLAFSLPIDSLLSPNQTKVFLRQAYFRDLPAHFSTEIKKPFRAPVATWFVGPLKAWLTEEFSRQEAVFACLGIEPGGLEHVLTKTAQGHARMAKVAFCLLTLGFWIDWL”, “not soluble”.
As for “MRFEDIGISKVDKVCLVDRLGCQENLVGTVHVTTTHIIFRAENGSKELWLATGLISSVEKGTLTAAGCMLVIRCKHFQVITLLISRDKSCQDLYETLQRAAKPVSVNVTELLAFENREPVEDVRGWRRLDWNSEMTRQGITKSQWTESNINEGYTICDTYPNKLWFPTAASTSVLLGSCKFRSRGRLPVLTYFHQQTEAALCRCAQPLTGFSARCVEDEKLMELVGKANTNSDNLFLVDTRPRVNAMVNKVQGKGFEDERNYSNMRFHFFDIENIHVMRASQARLLDAVTKCRDVTEYWKTLEASGWLKHVRSVVECSLFLAESISRGTSCVVHCSDGWDRTSQVVALCQLLLDPYYRTIHGFQVLIEKDWLGFGHKFDDRCGHVGALNDEAGKEVSPIFTQWLDCIWQIMQQKPRAFQFNERYLIEMHEHVYSCQFGTFIGNCDKDRRDLNLSKRTKSLWTWMDARHDDYMNPFYSPTAHVALLDLDTRAARFTVWTAMYNRFDNGLQPRERLEDLTMAAMEHVGVLESHVAQLRTRLAELKTQQNQQITSTNTPTNMVDSGMSSATDDLKNLSLSHPLDPLSSTLPILERATSQESGVMDSSLYYPDEALTKYSLKWQPLRGADRCSNPACRGEFSSTIERRIHCHLCGMIFCRRCLKVSADERERVCDKCKTD”, the “soluble on expression in E. coli” value is “not soluble”.
Turning to “GPGSMLPHSQPLVLPMEPSNWAVMPPTGVEMPMEPGTFEDISTAGWIGPRRRSFCGPQTEEEWEDLMIHRSSLRRESGQGTGVGLSGSGCLLGTDDPDRDVLCEYYGDMANRDEKVLSCGLRGQEGRRVLGNKPLRQRPNGPMRERTNYGSLASRRQRVMEEGGVWGDVEVCCVPVEPWHPMDMVCLGEERPEDVCVLRQTDTELYGTGRAFATDGKP”, the “soluble on expression in E. coli” value is “not soluble”.
Regarding “MAHHHHHHMVFFFPSFFFHNHDRELSCGKVSKAFIYIKKIHKMRRVSSLKEYNSLKEEAGNGLGLVVHFSASWCEPCKNVGSMLEGYLSQYNQKVLFAEVDADLVTNVCEAENVECVPFIVFFRTSSRERAQERVADVVGGKLDHLEMNLVSLYGNGHDTRESFPDLNEYLKYLTSRKGVVAFITGTPSRPRCGFTGRLVEIFYELGIKFIYYDVWASDEVCEGLKKYSEWPTYPQVYVDGELIGGYDICSQLKESGELKAILKH”, the “soluble on expression in E. coli” value is “soluble”.
As to “MGSDKIHHHHHHMLPSQRHAFSIPEDVIYLDAAYMSPIPNIATEAGCDGVLVKAAPWDMTINSYYDEVERVRELAASFVGASIDDVGVIPATSYGIAVAAANVHVTPGSVIMMMDNEHTSHRYAWYELAEKKGATVVTVPRRPDQEWGSALAAAIKGSTVPVSVVAGTIVHWFEGMSVDIEVVADAAHAVGAALVMDGTQWVGAVPFDVSRIRPDFLSFATYKFLLGPYRLAFLYADKKWQEAGKPIEFHSWNRKGGERPDFYLETMPDYLPGARRFDMGERSDFAVLPIAIRSLELLQSWGSTAVFERLVHLNELIWKEAEARGFEGPRKDLRAPHISVIELGQRFRPDFARNLKDNKAFVTVRGTKMRITPHVYNEEHDIRRLFELVDSLTR”, the “soluble on expression in E. coli” value is on record as “not soluble”.
Consider “MSLTNHHPSSTGPQHPYRAGWIHFTNVAPILDSLELPPGVTAITGVPTQMNAALLSGEVDIANVSAVEFIRHADTLAALPDFSVAVLGPVYSVNLFHTCPLPELRRVALTSQSAMSVALLEVLLRQKGLSPVLERAEGTAESLLAAGYDGVLRIGDDALREWYGVVGPLTPERTMTSLPHTGRGITVTDLAQEWFDLTGHPFTFAVWAYRKDNPPPAALLQAMREARRRGIGHLAEVSQRHAEKLGLPERVVQHYLWNFRYHLEAPDRLGLREFADLAVPGHAELTFGAREEAEGHHHHHH”, for which the “soluble on expression in E. coli” value was “soluble”.
Regarding “MASRLLRGVGALAAQALRAHGPRGAAVTRSMASGGGVPTDEEQATGLEREIMIAAQKGLDPYNMLPPKAASGTKEDPNLVPSISNKRIVGCICEEDNCTVIWFWLHKGESQRCPNCGTHYKLVPHQMAH”, the “soluble on expression in E. coli” value was “soluble”.
Take “MSSRKNFSRLTWFRKQRKAVVSSNDKKMPNGILEEQEQQRVMLLSRSPSGPKKFFPIPVEHLEEEIRVRSADDCKRFREEFNSLPSGHIQGTFELANKEENREKNRYPNILPNDHCRVILSQVDGIPCSDYINASYIDGYKEKNKFIAAQGPKQETVNDFWRMVWEQRSATIVMLTNLKERKEEKCYQYWPDQGCWTYGNIRVCVEDCVVLVDYTIRKFCIHPQLPDSCKAPRLVSQLHFTSWPDFGVPFTPIGMLKFLKKVKTLNPSHAGPIVVHCSAGVGRTGTFIVIDAMMDMIHSEQKVDVFEFVSRIRNQRPQMVQTDVQYTFIYQALLEYYLYGDTELDVSSLERHLQTLHSTATHFDKIGLEEEFRKLTNVRIMKENMRTGNLPANMKKARVIQIIPYDFNRVILSMKRGQEFTDYINASFIDGYRQKDYFMATQGPLAHTGEDFWRMVWEWKSHTIVMLTEVQEREQDKCYQYWPTEGSVTHGDITIEIKSDTLSEAISVRDFLVTFKQPLARQEEQVRMVRQFHFHGWPEVGIPAEGKGIIDLIAAVQKQQQQTGNHPITVHCSAGAGRTGTFIALSNILERVKAEGLLDVFQAVKSLRLQRPHMVQTLEQYEFCYKVVQDFIDIFSDYANFK”: the “soluble on expression in E. coli” value is recorded as “soluble”.
In the case of “MNPAALSAFTRSLLFNRCSTSSFCNSITRNAVAFFATAAATPKINVNVGTIGHIDHGKTTLTSAITRVQAKKGFAKHIKFDEIDKGKEEKKRGITINVAHIGYESPLRRYSHTDCPGHSDFIKNMICGTSQMDVAVLVIAATDGVMEQTKEHLILAKQVGVKNMAIFINKADLVEEDDLDLVEMEARELLSLHGFNGDATPVIRGSALSALEGQDISCIERLIDALDSLPEPDRNEKDTFVMPIASKTAITGRGTVIVGTLERGVLKKGDKVEIKGDGQTLQTTASDIQVFGKSVKEVRAGDHCGVLCRGVKGDTVKRGMWAGHPGAVTITNRVKVELYLLSEAENGRKIGIRTGFTDKMYCSTWDQVGRFDMSNELLMPGEHTSATVLLMKDMPLRKGMPFTLREGSSKTTIARGIISDLEDHVAVEKHNLKKSAEKM”, the “soluble on expression in E. coli” value is given as “not soluble”.
For “MEKRELKVKTLSEVRDYEIPILKETVFDIFGGLPQAFIGISGEAGAGKTQTLMRLMADIAKREPVLVVLTEQSPHRWKAIFKKYDTNHENVRVVFKYYMDQDFIKELSQREERIIVIDSISGAVSEQKARQVAKDLRSLVEWKNKWLVGALQVRKEGVAGGEGVEHMIEVSYEITYFQLKPQNKWLYEKLKPFGYEVGDYVRLIRNTFDKVRGVQNTNLVVVDISKKNGILEFRELGRKEGEVNHE” the value was “not soluble”.
